From patent publication US20040002144
Positions count from the first letter of the chain named. Names may count otherwise. “Also recorded” adds a separate entry of the source.

T1: ovalbumin, P01012
T1 chain: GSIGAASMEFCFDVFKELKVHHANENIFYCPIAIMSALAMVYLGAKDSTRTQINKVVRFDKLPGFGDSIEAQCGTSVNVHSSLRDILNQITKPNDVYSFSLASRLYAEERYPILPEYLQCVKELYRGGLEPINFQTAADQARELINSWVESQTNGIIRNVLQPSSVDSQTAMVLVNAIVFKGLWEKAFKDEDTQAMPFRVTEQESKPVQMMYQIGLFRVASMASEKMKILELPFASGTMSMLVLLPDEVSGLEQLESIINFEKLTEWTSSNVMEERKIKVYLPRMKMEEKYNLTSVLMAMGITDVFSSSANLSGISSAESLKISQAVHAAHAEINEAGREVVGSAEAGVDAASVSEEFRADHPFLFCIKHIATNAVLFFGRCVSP

B1: transglutaminase derived from Streptoverticillium mobaraense (MTG), wild type (protein)
chain: DSDDRVTPPAEPLDRMPDPYRPSYGRAETVVNNYIRKWQQVYSHRDGRKQQMTEEQREWLSYGCVGVTWVNSGQYPTNRLAFASFDEDRFKNELKNGRPRSGETRAEFEGRVAKESFDEEKGFQRAREVASVMNRALENAHDESAYLDNLKKELANGNDALRNEDARSPFYSALRNTPSFKERNGGNHDPSRMKAVIYSKHFWSGQDRSSSADKRKYGDPDAFRPAPGTGLVDMSRDRNIPRSPTSPGEGFVNFDYGWFGAQTEADADKTVWTHGNHYHAPNGSLGAMHVYESKFRNWSEGYSDFDRGAYVITFIPKSWNTAPDKVKQGWP
B2: Ser-type MTG (mutant in which Asp1 has been removed, starts with Ser2) (protein)
chain: SDDRVTPPAEPLDRMPDPYRPSYGRAETVVNNYIRKWQQVYSHRDGRKQQMTEEQREWLSYGCVGVTWVNSGQYPTNRLAFASFDEDRFKNELKNGRPRSGETRAEFEGRVAKESFDEEKGFQRAREVASVMNRALENAHDESAYLDNLKKELANGNDALRNEDARSPFYSALRNTPSFKERNGGNHDPSRMKAVIYSKHFWSGQDRSSSADKRKYGDPDAFRPAPGTGLVDMSRDRNIPRSPTSPGEGFVNFDYGWFGAQTEADADKTVWTHGNHYHAPNGSLGAMHVYESKFRNWSEGYSDFDRGAYVITFIPKSWNTAPDKVKQGWP
B3: del 1-2 mutant MTG (residue Nos. 1 and 2 removed) (protein)
chain: DDRVTPPAEPLDRMPDPYRPSYGRAETVVNNYIRKWQQVYSHRDGRKQQMTEEQREWLSYGCVGVTWVNSGQYPTNRLAFASFDEDRFKNELKNGRPRSGETRAEFEGRVAKESFDEEKGFQRAREVASVMNRALENAHDESAYLDNLKKELANGNDALRNEDARSPFYSALRNTPSFKERNGGNHDPSRMKAVIYSKHFWSGQDRSSSADKRKYGDPDAFRPAPGTGLVDMSRDRNIPRSPTSPGEGFVNFDYGWFGAQTEADADKTVWTHGNHYHAPNGSLGAMHVYESKFRNWSEGYSDFDRGAYVITFIPKSWNTAPDKVKQGWP
B4: Sg7 mutant MTG (residue Nos. 278 to 287 replaced with 3 glycine residues) (protein)
chain: DSDDRVTPPAEPLDRMPDPYRPSYGRAETVVNNYIRKWQQVYSHRDGRKQQMTEEQREWLSYGCVGVTWVNSGQYPTNRLAFASFDEDRFKNELKNGRPRSGETRAEFEGRVAKESFDEEKGFQRAREVASVMNRALENAHDESAYLDNLKKELANGNDALRNEDARSPFYSALRNTPSFKERNGGNHDPSRMKAVIYSKHFWSGQDRSSSADKRKYGDPDAFRPAPGTGLVDMSRDRNIPRSPTSPGEGFVNFDYGWFGAQTEADADKTVWTHGNHGGGMHVYESKFRNWSEGYSDFDRGAYVITFIPKSWNTAPDKVKQGWP
B5: del 1-3 mutant MTG (residue Nos. 1 to 3 removed) (protein)
chain: DRVTPPAEPLDRMPDPYRPSYGRAETVVNNYIRKWQQVYSHRDGRKQQMTEEQREWLSYGCVGVTWVNSGQYPTNRLAFASFDEDRFKNELKNGRPRSGETRAEFEGRVAKESFDEEKGFQRAREVASVMNRALENAHDESAYLDNLKKELANGNDALRNEDARSPFYSALRNTPSFKERNGGNHDPSRMKAVIYSKHFWSGQDRSSSADKRKYGDPDAFRPAPGTGLVDMSRDRNIPRSPTSPGEGFVNFDYGWFGAQTEADADKTVWTHGNHYHAPNGSLGAMHVYESKFRNWSEGYSDFDRGAYVITFIPKSWNTAPDKVKQGWP
B6: Sg4 mutant MTG (residue Nos. 241 to 252 replaced with 3 glycine residues) (protein)
chain: DSDDRVTPPAEPLDRMPDPYRPSYGRAETVVNNYIRKWQQVYSHRDGRKQQMTEEQREWLSYGCVGVTWVNSGQYPTNRLAFASFDEDRFKNELKNGRPRSGETRAEFEGRVAKESFDEEKGFQRAREVASVMNRALENAHDESAYLDNLKKELANGNDALRNEDARSPFYSALRNTPSFKERNGGNHDPSRMKAVIYSKHFWSGQDRSSSADKRKYGDPDAFRPAPGTGLVDMSRDRNIGGGNFDYGWFGAQTEADADKTVWTHGNHYHAPNGSLGAMHVYESKFRNWSEGYSDFDRGAYVITFIPKSWNTAPDKVKQGWP
B7: S2Y mutant MTG (Ser2 replaced with Tyr, in Met type MTG) (protein)
chain: MDYDDRVTPPAEPLDRMPDPYRPSYGRAETVVNNYIRKWQQVYSHRDGRKQQMTEEQREWLSYGCVGVTWVNSGQYPTNRLAFASFDEDRFKNELKNGRPRSGETRAEFEGRVAKESFDEEKGFQRAREVASVMNRALENAHDESAYLDNLKKELANGNDALRNEDARSPFYSALRNTPSFKERNGGNHDPSRMKAVIYSKHFWSGQDRSSSADKRKYGDPDAFRPAPGTGLVDMSRDRNIPRSPTSPGEGFVNFDYGWFGAQTEADADKTVWTHGNHYHAPNGSLGAMHVYESKFRNWSEGYSDFDRGAYVITFIPKSWNTAPDKVKQGWP
B8: S2R mutant MTG (Ser2 replaced with Arg, in Met type MTG) (protein)
chain: B7 chain with Y3R
B9: S2D mutant MTG (Ser2 replaced with Asp, in Met type MTG) (protein)
chain: B7 chain with Y3D

Assays:
[1] = target: T1, ovalbumin, P01012
[2] = target: insulin A chain wherein cysteine residue had been oxidized (Sigma)
insulin A chain wherein cysteine residue had been oxidized (Sigma), sequence (chain, as listed by the source): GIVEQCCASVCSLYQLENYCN

Row | Protein | 15N-labeling rate of the ovalbumin glutamine residue giving signal "a" [1] | groups of 1H-15N HSQC signals of 15N-labeled ovalbumin glutamine residues after 6 hours [1] | further results
1 | B1 | the order of the 15N-labeling rate was S2Y<S2D<wild type<S2R | 6 groups of the signals were found when the wild type was used | 15N-labeled residue identified by mass spectrometry [2]: in the two glutamine residues in insulin A chain, the 15th glutamine residue was the substrate of MTG
2 | B2 | – | – | 15N-labeling rate of the ovalbumin glutamine residue giving signal "a" (1H-15N HSQC peak intensity vs. reaction time) [1]: more rapidly 15N-labeled when it was reacted with the Ser-type rather than when reacted with the wild type
3 | B3 | – | – | reactivity to the ovalbumin glutamine residue giving signal "a" (1H-15N HSQC peak intensity vs. reaction time) [1]: the reactivity of each of del 1-2 and del 1-3 was improved as compared with that of the wild type
4 | B4 | – | only 3 groups and 2 groups of the signals were found when Sg4 and Sg7 were used, respectively | –
5 | B5 | – | – | reactivity to the ovalbumin glutamine residue giving signal "a" (1H-15N HSQC peak intensity vs. reaction time) [1]: the reactivity of each of del 1-2 and del 1-3 was improved as compared with that of the wild type; also recorded: the reactivity of del 1-3 was even much higher than that of Ser type or S2R
6 | B6 | – | only 3 groups and 2 groups of the signals were found when Sg4 and Sg7 were used, respectively | –
7 | B7 | the order of the 15N-labeling rate was S2Y<S2D<wild type<S2R | – | –
8 | B8 | the order of the 15N-labeling rate was S2Y<S2D<wild type<S2R | – | –
9 | B9 | the order of the 15N-labeling rate was S2Y<S2D<wild type<S2R | – | –
